Assay results: the Immune Epitope Database (IEDB)
Blank lines part the entries; values can stand above or below the sequence they belong to.

How the values were obtained:
HLA-A*02:01 [1] = assay: IEDB peptide-MHC binding, purified MHC/competitive/radioactivity; filed as Kd, often an IC50 or EC50 that approximates it; ≥ and ≤ were set here for values at or beyond the usual limits of such assays
HLA-A*68:02 = assay: as above
HLA-A*02:03 = assay: as above
HLA-A*02:02 = assay: as above
HLA-A*02:06 = assay: as above
HLA-B*15:01 = assay: IEDB peptide-MHC binding, purified MHC/direct/fluorescence; filed as Kd, often an IC50 or EC50 that approximates it; ≥ and ≤ were set here for values at or beyond the usual limits of such assays; settings: source organism: Pseudomonas putida
HLA-A*02:01 [2] = assay: as above
HLA-B*08:01 [3] = assay: as above; settings: source organism: Pseudomonas putida
HLA-B*07:02 = assay: as above; settings: source organism: Pseudomonas putida
HLA-A*26:01 [4] = assay: as above; settings: source organism: Pseudomonas putida
HLA-A*01:01 [5] = assay: as above; settings: source organism: Pseudomonas putida
HLA-B*27:05 = assay: as above; settings: source organism: Pseudomonas putida
HLA-B*40:01 = assay: as above; settings: source organism: Pseudomonas putida
HLA-B*58:01 = assay: as above; settings: source organism: Pseudomonas putida
HLA-A*69:01 = assay: as above; settings: source organism: Pseudomonas putida
HLA-A*11:01 = assay: as above; settings: source organism: Pseudomonas putida
HLA-A*03:01 = assay: as above
HLA-A*31:01 = assay: as above; settings: source organism: Pseudomonas putida
HLA-B*08:01 [6] = assay: IEDB peptide-MHC binding, purified MHC/competitive/radioactivity; filed as Kd, often an IC50 or EC50 that approximates it; ≥ and ≤ were set here for values at or beyond the usual limits of such assays
HLA-A*26:01 [7] = assay: as above
HLA-B*18:01 [8] = assay: IEDB peptide-MHC binding, purified MHC/direct/fluorescence; filed as Kd, often an IC50 or EC50 that approximates it; ≥ and ≤ were set here for values at or beyond the usual limits of such assays
HLA-B*51:01 [9] = assay: IEDB peptide-MHC binding, purified MHC/competitive/fluorescence; filed as Kd, often an IC50 or EC50 that approximates it; ≥ and ≤ were set here for values at or beyond the usual limits of such assays
HLA-B*51:01 [10] = assay: IEDB peptide-MHC binding, purified MHC/competitive/radioactivity; filed as Kd, often an IC50 or EC50 that approximates it; ≥ and ≤ were set here for values at or beyond the usual limits of such assays; settings: source organism: Dengue virus 4 Philippines/H241/1956
HLA-A*01:01 [11] = assay: as above; settings: source organism: Dengue virus 2 Jamaica/1409/1983
HLA-B*27:03 = assay: IEDB peptide-MHC binding, purified MHC/competitive/fluorescence; filed as Kd, often an IC50 or EC50 that approximates it; ≥ and ≤ were set here for values at or beyond the usual limits of such assays; settings: source organism: Hantavirus HPR/02-73
HLA-A*26:01 [12] = assay: as above; settings: source organism: Hantavirus HPR/02-73
HLA-B*18:01 [13] = assay: as above; settings: source organism: Hantavirus HPR/02-73
HLA-B*57:01 = assay: as above; settings: source organism: Hantavirus HPR/02-73
[14] = source organism: Human immunodeficiency virus type 1 (SF33 ISOLATE)
[15] = source organism: Pseudomonas putida
[16] = source organism: Dengue virus 2 Jamaica/1409/1983
[17] = source organism: Vaccinia virus WR
[18] = source organism: Dengue virus 3 Martinique/1243/1999
[19] = source organism: Dengue virus 1 Singapore/S275/1990
[20] = source organism: Trypanosoma cruzi
[21] = source organism: Lassa virus Josiah
[22] = source organism: Dengue virus 4 Philippines/H241/1956

Sequence: ALIRILQQL
- Kd (HLA-A*02:01 [1]; [14]): 28.1 nM
- Kd (HLA-A*68:02; [14]): ≥ 65300 nM
- Kd (HLA-A*02:03; [14]): 2.99 nM
- Kd (HLA-A*02:02; [14]): 3.31 nM
- Kd (HLA-A*02:06; [14]): 8.2 nM

- Kd (HLA-B*15:01): ≥ 20000 nM
- Kd (HLA-A*02:01 [2]; [15]): ≥ 20000 nM
- Kd (HLA-B*08:01 [3]): ≥ 20000 nM
- Kd (HLA-B*07:02): ≥ 20000 nM
- Kd (HLA-A*26:01 [4]): 4520 nM
- Kd (HLA-A*01:01 [5]): ≥ 20000 nM
- Kd (HLA-B*27:05): ≥ 20000 nM
- Kd (HLA-B*40:01): ≥ 20000 nM
- Kd (HLA-B*58:01): ≥ 20000 nM
- Kd (HLA-A*69:01): ≥ 20000 nM
- Kd (HLA-A*11:01): ≥ 20000 nM
- Kd (HLA-A*03:01; [15]): ≥ 20000 nM
- Kd (HLA-A*31:01): ≥ 20000 nM
Sequence: DLSNSMRDF

Sequence: DTMTYKCPRI
- Kd (HLA-A*68:02; source organism: Dengue virus 1 Brazil/97-11/1997): 64 nM

Sequence: EARKTFVDL
- Kd (HLA-B*08:01 [6]; [16]): 570 nM

Sequence: ELKLFNVTL
- Kd (HLA-B*08:01 [6]; [17]): 4.68 nM

Sequence: ETPTWNRKEL
- Kd (HLA-A*68:02; [18]): 872 nM

Sequence: EVDSFSLGLL
- Kd (HLA-A*68:02; [19]): 146 nM
- Kd (HLA-A*26:01 [7]; [19]): 1930 nM

Sequence: FANYNFTLV
- Kd (HLA-A*68:02; [20]): 0.0102 nM
- Kd (HLA-A*02:03; [20]): ≥ 78100 nM
- Kd (HLA-A*02:02; [20]): 22.6 nM
- Kd (HLA-A*02:06; [20]): 0.00585 nM

Sequence: FIWFIFHFV
- Kd (HLA-B*08:01 [6]; source organism: Vaccinia virus): 3160 nM

Sequence: FPFGDVWNY
- Kd (HLA-B*18:01 [8]; source organism: Listeria innocua): 1.4 nM

Sequence: FVKRKKLDI
- Kd (HLA-B*08:01 [6]; [17]): 2.98 nM

Sequence: GASRRSWPL
- Kd (HLA-B*08:01 [6]; source organism: Dengue virus 4 Dominica/814669/1981): 14 nM

Sequence: GKKHMIAGVL
- Kd (HLA-B*08:01 [6]; source organism: Dengue virus 3 Singapore/8120/1995): 11900 nM

Sequence: GLVGLVTFLL
- Kd (HLA-A*02:01 [1]; [21]): 49 nM
- Kd (HLA-A*68:02; [21]): 214 nM
- Kd (HLA-A*02:03; [21]): 122 nM
- Kd (HLA-A*02:02; [21]): 191 nM
- Kd (HLA-A*02:06; [21]): 2060 nM

Sequence: GLYNFATCGL
- Kd (HLA-A*68:02; [21]): ≥ 5000 nM
- Kd (HLA-A*02:03; [21]): 2.27 nM
- Kd (HLA-A*02:02; [21]): 5.12 nM
- Kd (HLA-A*02:06; [21]): 218 nM

Sequence: IDKKGKVVGL
- Kd (HLA-B*08:01 [6]; source organism: Dengue virus 2 16681-PDK53): 13700 nM

- Kd (HLA-A*02:01 [1]; source organism: Homo sapiens): 95 nM
Sequence: ILNAMITKI

Sequence: IMTSYQYLII
- Kd (HLA-A*02:01 [1]; [21]): 1000 nM

Sequence: KEVSGVKGF
- Kd (HLA-B*18:01 [8]; source organism: Yellow fever virus): 500 nM

Sequence: LGRNKRPRL
- Kd (HLA-B*08:01 [6]; source organism: Dengue virus 3 Sri Lanka/1266/2000): 42.7 nM

Sequence: LLGMWGIAAI
- Kd (HLA-A*02:01 [1]; [20]): 14.3 nM
- Kd (HLA-A*68:02; [20]): ≥ 42200 nM
- Kd (HLA-A*02:03; [20]): 3.16 nM
- Kd (HLA-A*02:02; [20]): 24.3 nM
- Kd (HLA-A*02:06; [20]): 9.58 nM

Sequence: LLQYWSQEL
- Kd (HLA-A*02:01 [1]; source organism: HIV-1 M:B_MN): 189 nM

Sequence: LPDTGSWGI
- Kd (HLA-B*51:01 [9]; source organism: Yersinia pestis Nepal516): ≥ 20000 nM

Sequence: LSIPPTAGIL
- Kd (HLA-B*08:01 [6]; [22]): 2340 nM
- Kd (HLA-B*51:01 [10]): 9470 nM

Sequence: LTFIRSTMPL
- Kd (HLA-A*68:02; [22]): 19.8 nM
- Kd (HLA-B*51:01 [10]): 1520 nM
- Kd (HLA-A*26:01 [7]; [22]): 7410 nM

Sequence: LVGLLSNAAS
- Kd (HLA-A*02:01 [1]; [20]): 11200 nM
- Kd (HLA-A*68:02; [20]): 4310 nM
- Kd (HLA-A*02:03; [20]): 395 nM
- Kd (HLA-A*02:02; [20]): 1720 nM
- Kd (HLA-A*02:06; [20]): 1330 nM

Sequence: LVGLVTFLL
- Kd (HLA-A*02:01 [1]; [21]): 641 nM

Sequence: MLLVLCAVQL
- Kd (HLA-B*08:01 [6]; [18]): 5970 nM

Sequence: MMKERSTIL
- Kd (HLA-B*08:01 [6]; [17]): 34.9 nM

Sequence: MRGAKRMAIL
- Kd (HLA-B*08:01 [6]; [16]): 54.2 nM

Sequence: MSFSCIAIGI
- Kd (HLA-A*68:02; [18]): 5.17 nM

Sequence: MTTEDMLAV
- Kd (HLA-A*68:02; [16]): 10.8 nM
- Kd (HLA-A*26:01 [7]; [16]): 623 nM
- Kd (HLA-A*01:01 [11]): 2700 nM
- Kd (HLA-A*02:06; [16]): 7.01 nM

Sequence: MVTHFDNTQV
- Kd (HLA-A*68:02; [22]): 9.99 nM

Sequence: NPQTKQMAF
- Kd (HLA-B*08:01 [6]; [17]): 14.3 nM

- Kd (HLA-A*68:02; source organism: Homo sapiens): ≥ 60000 nM
Sequence: QLQVTEREEV

Sequence: RLTQSHPIL
- Kd (HLA-A*02:01 [1]; [21]): 1670 nM

Sequence: RTVFFVLMML
- Kd (HLA-A*68:02; [22]): 17.9 nM

Sequence: SAKQLRTRI
- Kd (HLA-B*08:01 [6]; [17]): 201 nM

Sequence: SASSMINGV
- Kd (HLA-A*68:02; [18]): 28.9 nM

Sequence: SPYNFFKRI
- Kd (HLA-B*08:01 [6]; [17]): 422 nM

Sequence: SSMRKTDWL
- Kd (HLA-B*08:01 [6]; [18]): 240 nM

Sequence: TSKKRSWPL
- Kd (HLA-B*08:01 [6]; [16]): 5.82 nM

Sequence: TVTGGIFLFL
- Kd (HLA-A*68:02; [16]): 53.6 nM

Sequence: TWLPVLLGSL
- Kd (HLA-B*08:01 [6]; [19]): 9430 nM

- Kd (HLA-A*68:02; source organism: Homo sapiens): 4450 nM
Sequence: WLVLRINKAL

Sequence: WTLYAVATTI
- Kd (HLA-A*68:02; [22]): 10 nM

Sequence: YILGFAIPI
- Kd (HLA-A*02:01 [2]; source organism: Juquitiba virus): 0.3 nM
- Kd (HLA-A*03:01; source organism: Araucaria virus): ≥ 20000 nM
- Kd (HLA-B*27:03): ≥ 20000 nM
- Kd (HLA-B*51:01 [9]; source organism: Hantavirus HPR/02-73): ≥ 20000 nM
- Kd (HLA-A*26:01 [12]): ≥ 20000 nM
- Kd (HLA-B*18:01 [13]): ≥ 20000 nM
- Kd (HLA-B*57:01): ≥ 20000 nM

Sequence: YLLPSRGPKL
- Kd (HLA-A*02:01 [1]; source organism: Hepatitis C virus subtype 2b): 646 nM

Sequence: YLSTERDHV
- Kd (HLA-A*02:01 [1]; source organism: Variola virus): 100 nM
